# PMC2800235
# Target: MBP-transposase fusion protein (reconstituted ancestral Hsmar1 transposase) (human (reconstructed ancestral sequence of the human Hsmar1 transposon))
# Assay: SEC
substance,measurement,value
MBP-transposase fusion protein (reconstituted ancestral Hsmar1 transposase) (enzyme),stoichiometry N,2
